Source: US20190085055A1
Blank lines part the entries; values can stand above or below the substance they belong to.

Key:
[1] = target: D3H44 light chain, wild type; assay: LCCA (SPR), competitor L2 S176V_T178L
[2] = target: D3H44 light chain S176V_T178L; assay: LCCA (SPR), competitor L1 WT
D3H44 light chain S176L [3] = assay: LCCA (SPR), competitor L1 V133S
D3H44 light chain V133S [4] = assay: LCCA: H1 co-expressed with L1 and L2, SPR read-out of light chain tags; competing chain L2
D3H44 light chain S176L [5] = assay: LCCA: H1 co-expressed with L1 and L2, SPR read-out of light chain tags; competing chain L1
D3H44 light chain V133S [6] = assay: LCCA (SPR), competitor L2 S176L
[7] = target: D3H44 light chain L89R_F98W; assay: LCCA (SPR), competitor L2 WT
[8] = target: D3H44 light chain L89R_F98W; assay: LCCA (SPR), competitor L2 F98Y
[9] = target: D3H44 light chain L89R_F98W; assay: LCCA: H1 co-expressed with L1 and L2, SPR read-out of light chain tags; competing chain L2
[10] = target: D3H44 light chain, wild type; assay: LCCA: H1 co-expressed with L1 and L2, SPR read-out of light chain tags; competing chain L1
D3H44 light chain F98Y = assay: LCCA (SPR), competitor L1 L89R_F98W
[11] = target: D3H44 light chain, wild type; assay: LCCA (SPR), competitor L1 L89R_F98W
D3H44 light chain F98W [12] = assay: LCCA (SPR), competitor L1 F98A
[13] = target: D3H44 light chain, wild type; assay: LCCA (SPR), competitor L1 F98A
D3H44 light chain F98A [14] = assay: LCCA (SPR), competitor L2 WT
[15] = target: D3H44 light chain, wild type; assay: LCCA (SPR), competitor L2 F98L
D3H44 light chain F98A [16] = assay: LCCA (SPR), competitor L2 F98W
D3H44 light chain F98L [17] = assay: LCCA (SPR), competitor L2 F98W
D3H44 light chain F98L [18] = assay: LCCA (SPR), competitor L1 WT
D3H44 light chain F98W [19] = assay: LCCA (SPR), competitor L1 F98L
D3H44 light chain F98A [20] = assay: LCCA (SPR), competitor L1 P44W
D3H44 light chain F98A [21] = assay: LCCA (SPR), competitor L1 Q38E
D3H44 light chain F98A [22] = assay: LCCA (SPR), competitor L1 Q38R
D3H44 light chain Q38R = assay: LCCA (SPR), competitor L2 F98A
D3H44 light chain P44W = assay: LCCA (SPR), competitor L2 F98A
D3H44 light chain Q38E = assay: LCCA (SPR), competitor L2 F98A
D3H44 light chain F98A [23] = assay: LCCA (SPR), competitor L1 F98W
D3H44 light chain F98W [24] = assay: LCCA (SPR), competitor L2 F98A
D3H44 light chain F98A [25] = assay: LCCA (SPR), competitor L1 WT
D3H44 light chain F116A = assay: LCCA (SPR), competitor L1 WT
[26] = target: tissue factor extracellular domains (human) (UniProt P13726); assay: SPR, TF immobilised, purified Fab as analyte, 1:1 model
[27] = target: tissue factor extracellular domains (human) (UniProt P13726); assay: SPR, median of repeats

Substance: D3H44 heavy chain (Fab format) S188I
H1 L1 of H1 L1:H1 L2 (screen) [1]: 61.9
H1 L2 of H1 L1:H1 L2 (screen) [2]: 41.9

Substance: D3H44 heavy chain (Fab format) S188L_V190Y
H1 L2 of H1 L1:H1 L2 (screen) (D3H44 light chain S176L [3]): 7.72
H1 L2 of H1 L1:H1 L2 (verification) (D3H44 light chain S176L [3]): 12.4
H1 Readout (H1-L1) (D3H44 light chain V133S [4]): 83
H1 Readout (H1-L2) (D3H44 light chain S176L [5]): 24
H1 L1 of H1 L1:H1 L2 (screen) (D3H44 light chain V133S [6]): 90
H1 L1 of H1 L1:H1 L2 (verification) (D3H44 light chain V133S [6]): 81.2

Substance: D3H44 heavy chain (Fab format), wild type
H1 L2 of H1 L1:H1 L2 (screen) (D3H44 light chain F98A [23]): 28.7
H1 L2 of H1 L1:H1 L2 (verification) (D3H44 light chain F98A [23]): 28.7
H1 L1 of H1 L1:H1 L2 (screen) (D3H44 light chain F98W [24]): 67.1
H1 L1 of H1 L1:H1 L2 (verification) (D3H44 light chain F98W [24]): 67.1
H2 L1 of H2 L2:H2 L1 (screen) (D3H44 light chain F98L [17]): 27.8
H2 L1 of H2 L2:H2 L1 (verification) (D3H44 light chain F98L [17]): 23.6
H1 L2 of H1 L1:H1 L2 (screen) (D3H44 light chain F98A [25]): 7.5
H1 L2 of H1 L1:H1 L2 (screen) (D3H44 light chain F116A): 26.3
H1 L2 of H1 L1:H1 L2 (screen) (D3H44 light chain F98L [18]): 13.3
H2 L2 of H2 L2:H2 L1 (screen) [2]: 99.4
H2 L2 of H2 L2:H2 L1 (screen) (D3H44 light chain F98W [19]): 74.2
H2 L2 of H2 L2:H2 L1 (verification) (D3H44 light chain F98W [19]): 50.8

The next lines start with the values.

H1 L1 of H1 L1:H1 L2 (screen) [7]: 98.7
H1 L1 of H1 L1:H1 L2 (verification) [7]: 119
H1 L1 of H1 L1:H1 L2 (screen) [8]: 67.8
H1 L1 of H1 L1:H1 L2 (verification) [8]: 76.3
H1 Readout (H1-L1) [9]: 99
H1 Readout (H1-L2) [10]: 10
H1 L2 of H1 L1:H1 L2 (screen) (D3H44 light chain F98Y): 24.4
H1 L2 of H1 L1:H1 L2 (verification) (D3H44 light chain F98Y): 18.1
H1 L2 of H1 L1:H1 L2 (screen) [11]: 4.2
H1 L2 of H1 L1:H1 L2 (verification) [11]: 4.5
Substance: D3H44 heavy chain (Fab format) V37E_F100D

H2 L2 of H2 L2:H2 L1 (screen) (D3H44 light chain F98W [12]): 66.5
H2 L2 of H2 L2:H2 L1 (screen) [13]: 72.6
H2 L1 of H2 L2:H2 L1 (screen) (D3H44 light chain F98A [14]): 28.7
H1 L1 of H1 L1:H1 L2 (screen) [15]: 78.5
H2 L1 of H2 L2:H2 L1 (screen) (D3H44 light chain F98A [16]): 30.9
H2 L1 of H2 L2:H2 L1 (screen) (D3H44 light chain F98L [17]): 21.7
H1 L2 of H1 L1:H1 L2 (screen) (D3H44 light chain F98L [18]): 7.34
H2 L2 of H2 L2:H2 L1 (screen) (D3H44 light chain F98W [19]): 65.7
Substance: D3H44 heavy chain (Fab format) V37I

H1 L2 of H1 L1:H1 L2 (screen) (D3H44 light chain F98W [12]): 23.5
H1 L2 of H1 L1:H1 L2 (verification) (D3H44 light chain F98W [12]): 23.4
H1 L2 of H1 L1:H1 L2 (screen) [13]: 28.8
H2 L2 of H2 L2:H2 L1 (screen) (D3H44 light chain F98A [20]): 83.1
H1 L1 of H1 L1:H1 L2 (screen) (D3H44 light chain F98A [14]): 64.1
H2 L2 of H2 L2:H2 L1 (screen) (D3H44 light chain F98A [21]): 65.9
H2 L2 of H2 L2:H2 L1 (verification) (D3H44 light chain F98A [21]): 70.5
H2 L2 of H2 L2:H2 L1 (screen) (D3H44 light chain F98A [22]): 48.9
H2 L2 of H2 L2:H2 L1 (verification) (D3H44 light chain F98A [22]): 47.8
H2 L1 of H2 L2:H2 L1 (screen) (D3H44 light chain Q38R): 26.8
H2 L1 of H2 L2:H2 L1 (verification) (D3H44 light chain Q38R): 26.7
H2 L1 of H2 L2:H2 L1 (screen) (D3H44 light chain P44W): 9.41
H2 L1 of H2 L2:H2 L1 (screen) (D3H44 light chain Q38E): 8.05
H2 L1 of H2 L2:H2 L1 (verification) (D3H44 light chain Q38E): 10.3
H1 L1 of H1 L1:H1 L2 (screen) (D3H44 light chain F98A [16]): 62.4
H1 L1 of H1 L1:H1 L2 (verification) (D3H44 light chain F98A [16]): 61.5
Substance: D3H44 heavy chain (Fab format) V37W

Kd [26]: 0.052 nM
Kd [27]: 0.06 nM
Substance: Wild-type anti-TF D3H44 Fab
